Data on 31 molecules can be found in US20120237528A1 (Janssen / Centocor, published 2012).

Residue numbers refer to the chain shown, from its start.

In general, Kd refers to a measure of binding affinity in units of concentration. For orientation: koff means the first-order rate constant of dissociation. A word on the kon: it is the rate constant with which the complex forms.

Sequences and labels used below:
B1: M1583 (antibody, V domains shown)
VH: EVQLVQSGAEVKKPGESLRISCKGSGYTFGPYWIEWVRQMPGKGLEWMGDIIPGSGWTNYSPSFQGHVTISADKSISTAYLQWSSLKASDTAMYYCARSGYYGNSGFAYWGQGTLVTVSS
VL: DIVMTQTPLSLPVTPGEPASISCKSSQSLLSSGNQKNYLTWYLQKPGQSPQLLIYWASTRESGVPDRFSGSGSGTDFTLKISRVEAEDVGVYYCQNDYTYPLTFGQGTKLEIK
notes: complete MAb; FR4 is its own entry; also called H177/L3
B2: M1588 (antibody, V domains shown)
VH: B1 VH with Y32F, I52L, W57Y
VL: B1 VL
notes: complete MAb; FR4 is its own entry; also called H179/L3
B3: M1651 (antibody, V domains shown)
VH: B1 VH with G30A, I52L, S55T, W57F, N59T
VL: B1 VL with S31Y, S32V, G33Y, N34G, Y98F, T99S, Y100W
notes: complete MAb; FR4 is its own entry; also called H171/L162
B4: M1589 (antibody, V domains shown)
VH: B1 VH with Y32H, I52L, S55T, W57Y
VL: B1 VL
notes: complete MAb; FR4 is its own entry; also called H187/L3
B5: M1639 (antibody, V domains shown)
VH: B1 VH with G30I, P31T, I52L, W57S
VL: B1 VL with S31Y, K36R, E61S, Y98D, L102M
notes: complete MAb; FR4 is its own entry; also called H22/L320
B6: M1596 (antibody, V domains shown)
VH: B1 VH with G30T, I52L, W57H, N59T
VL: B1 VL
notes: complete MAb; FR4 is its own entry; also called H185/L3
B7: M1610 (antibody, V domains shown)
VH: B1 VH with G30A, S55T, W57Y, N59T
VL: B1 VL
notes: complete MAb; FR4 is its own entry; also called H115/L3
B8: M1640 (antibody, V domains shown)
VH: B1 VH with G30I, P31T, I52L, W57S
VL: B1 VL with S31P, G33W, K36S, Y98F
notes: complete MAb; FR4 is its own entry; also called H22/L327
B9: M1601 (antibody, V domains shown)
VH: B1 VH with I52L, S55T, W57Y, N59V
VL: B1 VL
notes: complete MAb; FR4 is its own entry; also called H105/L3
B10: M1599 (antibody, V domains shown)
VH: B1 VH with I52L, S55T, W57Y, N59L
VL: B1 VL
notes: complete MAb; FR4 is its own entry; also called H130/L3
B11: M1613 (antibody, V domains shown)
VH: B1 VH with G30S, P31S, Y32H, I52L, W57F, N59H, Q82K
VL: B1 VL
notes: complete MAb; FR4 is its own entry; also called H136/L3
B12: M1653 (antibody, V domains shown)
VH: B1 VH with G30A, I52L, S55T, W57F, N59T
VL: B1 VL with S31Y, S32T, G33S, Y98D, T99Y, Y100W
notes: complete MAb; FR4 is its own entry; also called H171/L283
B13: M1585 (antibody, V domains shown)
VH: B1 VH with G30S, Y32F, S55T, W57Y
VL: B1 VL
notes: complete MAb; FR4 is its own entry; also called H139/L3
B14: M1605 (antibody, V domains shown)
VH: B1 VH with P31T, I52L, S55T, W57H, N59T
VL: B1 VL
notes: complete MAb; FR4 is its own entry; also called H168/L3
B15: M1652 (antibody, V domains shown)
VH: B1 VH with G30A, I52L, S55T, W57F, N59T
VL: B1 VL with S31F, S32R, G33P, N34T, Y98D, T99S
notes: complete MAb; FR4 is its own entry; also called H171/L225
B16: M1595 (antibody, V domains shown)
VH: B1 VH with G30Y, I52L, S55T, W57F
VL: B1 VL
notes: complete MAb; FR4 is its own entry; also called H160/L3
B17: M1604 (antibody, V domains shown)
VH: B1 VH with G30A, I52L, S55T, W57Y, N59W
VL: B1 VL
notes: complete MAb; FR4 is its own entry; also called H138/L3
B18: M1646 (antibody, V domains shown)
VH: B1 VH with G30A, I52L, S55T, W57F, N59T
VL: B1 VL with S31W, S32F, G33V, W56H, Y98D, T99S
notes: complete MAb; FR4 is its own entry; also called H171/L138
B19: M1638 (antibody, V domains shown)
VH: B1 VH with G30I, P31T, I52L, W57S
VL: B1 VL with S31W, S32F, G33V, W56H, Y98D, T99S
notes: complete MAb; FR4 is its own entry; also called H22/L138
B20: M1594 (antibody, V domains shown)
VH: B1 VH with G30P, I52L, S55T, W57Y, N59V
VL: B1 VL
notes: complete MAb; FR4 is its own entry; also called H158/L3
B21: M1586 (antibody, V domains shown)
VH: B1 VH with G30P, P31T, S55T
VL: B1 VL
notes: complete MAb; FR4 is its own entry; also called H164/L3
B22: M1641 (antibody, V domains shown)
VH: B1 VH with G30I, P31T, I52L, W57S
VL: B1 VL with S31F, G33A, K36R, E61D, Y98D
notes: complete MAb; FR4 is its own entry; also called H22/L335
B23: M1592 (antibody, V domains shown)
VH: B1 VH with G30S, Y32H, I52L, W57Y, N59I
VL: B1 VL
notes: complete MAb; FR4 is its own entry; also called H165/L3
B24: M1590 (antibody, V domains shown)
VH: B1 VH with G30L, S55T, W57F
VL: B1 VL
notes: complete MAb; FR4 is its own entry; also called H117/L3
B25: M1598 (antibody, V domains shown)
VH: B1 VH with G30T, I52L, S55T, W57Y, N59V
VL: B1 VL
notes: complete MAb; FR4 is its own entry; also called H137/L3
B26: M1649 (antibody, V domains shown)
VH: B1 VH with G30A, I52L, S55T, W57F, N59T
VL: B1 VL with S31F, G33A, K36R, E61D, Y98D
notes: complete MAb; FR4 is its own entry; also called H171/L335
B27: M1602 (antibody, V domains shown)
VH: B1 VH with G30D, P31A, Y32H, I52L, W57F, N59D
VL: B1 VL
notes: complete MAb; FR4 is its own entry; also called H106/L3
B28: M1606 (antibody, V domains shown)
VH: B1 VH with G30I, Y32H, I52L
VL: B1 VL
notes: complete MAb; FR4 is its own entry; also called H181/L3
B29: M1591 (antibody, V domains shown)
VH: B1 VH with G30R, S55T, W57Y
VL: B1 VL
notes: complete MAb; FR4 is its own entry; also called H122/L3
B30: M1597 (antibody, V domains shown)
VH: B1 VH with G30S, P31S, I52L, S55T, W57A, N59H
VL: B1 VL
notes: complete MAb; FR4 is its own entry; also called H134/L3
B31: M1587 (antibody, V domains shown)
VH: B1 VH with G30I, I52L, W57F, N59T
VL: B1 VL

The target in one assay is T1, recombinant extracellular domain (ECD) of human TF, amino acid 1-219 of the mature chain, C-terminal His6-tag (human, UniProt P13726 33-251).
T1 construct: expressed in a mammalian system; used for ELISA and Biacore; biotinylated by NHS-ester for the Fab ELISA; also called His6-TF-ECD1-219; HumanTF1-219
In words: Biacore. In general terms: In SPR one partner is held on a chip, and binding of the other changes the refractive index at the surface.
In the case of B1, the dissociation constant (Kd) was determined as 0.42 nM, the koff is 0.0001 s⁻¹ and the kon stood at 239000 M⁻¹ s⁻¹.
On to B2, for which the Kd was 0.35 nM, the off-rate constant (koff) was 6e-05 s⁻¹ and the on-rate (kon) was determined as 173000 M⁻¹ s⁻¹.
Regarding B3, the Kd was determined as 0.19 nM.
Take B4: the Kd worked out at 0.4 nM, the koff was found to be 7e-05 s⁻¹ and the kon came to 174000 M⁻¹ s⁻¹.
On to B5, for which the Kd came to 0.08 nM.
On to B6, for which the Kd amounted to 0.33 nM, the koff is 4.3e-05 s⁻¹ and the kon was found to be 131000 M⁻¹ s⁻¹.
The matching figures for B7: 0.54 nM, 0.0001 s⁻¹ and 184000 M⁻¹ s⁻¹.
On to B8, for which the Kd worked out at 0.76 nM.
Regarding B9, the Kd was 0.33 nM, the koff was found to be 4.6e-05 s⁻¹ and the on-rate (kon) stood at 137000 M⁻¹ s⁻¹.
B10: the Kd amounted to 0.39 nM, the koff worked out at 5.3e-05 s⁻¹ and the kon was determined as 138000 M⁻¹ s⁻¹.
For the molecule B11, the Kd was 0.92 nM, the koff was 7e-05 s⁻¹ and the on-rate (kon) stood at 75700 M⁻¹ s⁻¹.
B12: the Kd turned out to be 0.16 nM.
Take B13: the Kd is 0.49 nM, the koff came to 9e-05 s⁻¹ and the kon is 185000 M⁻¹ s⁻¹.
Take B14: the Kd was 0.64 nM, the off-rate constant (koff) was determined as 8.6e-05 s⁻¹ and the on-rate constant (kon) worked out at 135000 M⁻¹ s⁻¹.
Take B15: the Kd came out at 0.11 nM.
For B16, the Kd amounted to 0.39 nM, the dissociation rate constant (koff) came to 6.8e-05 s⁻¹ and the kon was determined as 176000 M⁻¹ s⁻¹.
B17: the Kd was found to be 0.14 nM, the koff was found to be 2.2e-05 s⁻¹ and the kon stood at 152000 M⁻¹ s⁻¹.
On to B18, for which the equilibrium dissociation constant (Kd) worked out at 0.19 nM.
Consider B19, for which the Kd worked out at 0.2 nM.
Turning to B20, the equilibrium dissociation constant (Kd) is 0.35 nM, the koff amounted to 4.3e-05 s⁻¹ and the kon came to 124000 M⁻¹ s⁻¹.
The matching figures for B21: 0.78 nM, 0.000143 s⁻¹ and 184000 M⁻¹ s⁻¹.
With B22, the Kd was 0.12 nM.
As to B23, the Kd worked out at 0.4 nM, the dissociation rate constant (koff) worked out at 7.7e-05 s⁻¹ and the kon turned out to be 191000 M⁻¹ s⁻¹.
In the case of B24, the Kd worked out at 0.69 nM, the koff is 0.000109 s⁻¹ and the kon is 159000 M⁻¹ s⁻¹.
Consider B25, for which the Kd was found to be 0.33 nM, the koff was 6.3e-05 s⁻¹ and the kon worked out at 192000 M⁻¹ s⁻¹.
For B26, the Kd worked out at 0.17 nM.
For B27, the Kd turned out to be 0.62 nM, the koff is 8.2e-05 s⁻¹ and the kon was 132000 M⁻¹ s⁻¹.
On the same counts, the results for B28 are 0.18 nM, 2.9e-05 s⁻¹ and 166000 M⁻¹ s⁻¹.
In the case of B29, the Kd stood at 0.41 nM, the koff was found to be 5.6e-05 s⁻¹ and the kon turned out to be 134000 M⁻¹ s⁻¹.
For the molecule B30, the Kd is 0.8 nM, the koff turned out to be 6.6e-05 s⁻¹ and the kon came to 83400 M⁻¹ s⁻¹.

For another assay, the target named is Innovin, lyophilized recombinant human tissue factor combined with phospholipids (human, UniProt P13726 33-295, limits assumed). The experiment in a line: cell-based or functional assay.
Turning to B1, the “T½ Max (seconds), coagulation of human plasma” value (“T½ Max (seconds), coagulation” below) was found to be 189 s.
B2: the “T½ Max (seconds), coagulation” value is 207 s.
The same measure, in the same setting: as for B31, the figure is 202 s; as for B4, 202 s; as for B5, 167 s.
With B6, the “T½ Max (seconds), coagulation” value is 163 s.
With B7, the “T½ Max (seconds), coagulation” value is 164 s.
Turning to B8, the “T½ Max (seconds), coagulation” value was found to be 168 s.
Same read-out and setting: as for B9, the figure is 180 s.
Same read-out and setting: as for B10, the figure is 151 s; as for B11, 165 s; as for B13, 205 s.
The same measure, in the same setting: in the case of B14 it was 160 s; in that of B16, 163 s; in that of B17, 165 s.
With B19, the “T½ Max (seconds), coagulation” value came to 163 s.
As to B20, the “T½ Max (seconds), coagulation” value turned out to be 165 s.
As for B21, the “T½ Max (seconds), coagulation” value worked out at 200 s.
Same read-out and setting: as for B22, the figure is 162 s; as for B23, 163 s; as for B24, 180 s.
On the same count and under the same terms, in the case of B25 it was 155 s; in that of B27, 163 s; in that of B28, 157 s.
With B29, the “T½ Max (seconds), coagulation” value is 154 s.
Same read-out and setting: in the case of B30 it was 157 s.
